In US20220356259A1:
Positions count from the first letter of the chain named.

B1: isolated antigen-binding protein C3E2 (antibody, human IgG1, kappa, V domains shown)
VH: QVQLQESGPGILQPSQTLSLTCSFSGFSLSTFGMGVGWIRQPSGKGLEWLVLILWNDIKYYNPALKSLLTVSKDTSNNQVFLKIASVDTADTATYYCARVDGYYGYFDVWGTGTTVTVSS
VL: DIVMTQSPLSLPVSLGDQASISCRSSQTIVHSNGNTYLEWYLQKPGQSPKLLIYKVSNRFSGVPDRFSGSGSGTDFTLKISRVEAEDLGVYYCFQGSHVPWTFGGGTKLEIKR
B2: isolated antigen-binding protein 3E2 1-2 (antibody, human IgG1, kappa, V domains shown)
VH: QVTLQESGPTLVKPTQTLTLTCTFSGFSLSTFGMGVGWIRQPPGKGLEWLVLILWNDIKYYNPALKSLLTVTKDTSKNQVVLTITNMDPVDTATYYCARVDGYYGYFDVWGQGTMVTVSS
VL: B1 VL with S14T, D17Q, Q18P, K44R, L88V, L109V

Tests used:
[1] = biological target: fusion protein in which the extracellular domain of Cynomolgus monkey GITR is fused with the domain of mouse IgG1-Fc (Cynomolgus monkey); assay: ELISA, cynoGITR-muFc coated at 5 ug/ml, anti-human IgG-HRP (FIG. 8)
[2] = biological target: fusion protein in which the extracellular domain of Cynomolgus monkey GITR is fused with the domain of mouse IgG1-Fc (Cynomolgus monkey); assay: ELISA, cynoGITR-muFc coated at 5 ug/ml, anti-human IgG-HRP (FIG. 7)

Sequence of fusion protein in which the extracellular domain of Cynomolgus monkey GITR is fused with the domain of mouse IgG1-Fc (Cynomolgus monkey) (chain, as listed by the source limits assumed, form in doubt): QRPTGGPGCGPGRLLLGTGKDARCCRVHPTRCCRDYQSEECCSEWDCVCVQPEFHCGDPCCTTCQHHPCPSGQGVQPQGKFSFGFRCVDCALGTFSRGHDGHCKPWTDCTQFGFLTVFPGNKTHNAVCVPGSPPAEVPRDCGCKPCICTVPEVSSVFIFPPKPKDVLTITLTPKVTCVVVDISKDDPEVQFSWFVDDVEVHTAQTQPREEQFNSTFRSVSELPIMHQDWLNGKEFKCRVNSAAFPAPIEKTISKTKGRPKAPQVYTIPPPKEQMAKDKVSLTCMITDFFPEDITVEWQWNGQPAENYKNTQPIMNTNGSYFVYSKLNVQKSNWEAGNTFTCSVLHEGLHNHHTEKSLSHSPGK

Binder	EC50 [1] [µg/mL]	EC50 [2] [µg/mL]
B1	0.0747	0.0704
B2		0.0517
